For assay [1], the target named is recombinant TACE catalytic domain.
A further assay has as its target T1, MMP7 catalytic domain.
T1 sequence (P09237 whole entry, species assumed, looked up): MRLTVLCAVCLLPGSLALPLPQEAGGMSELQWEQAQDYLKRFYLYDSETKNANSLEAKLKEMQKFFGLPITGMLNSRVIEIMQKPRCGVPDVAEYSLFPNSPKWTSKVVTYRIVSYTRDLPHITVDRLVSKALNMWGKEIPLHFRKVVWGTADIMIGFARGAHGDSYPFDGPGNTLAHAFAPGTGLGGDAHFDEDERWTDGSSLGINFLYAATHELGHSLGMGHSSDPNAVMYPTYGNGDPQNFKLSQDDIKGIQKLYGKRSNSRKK

recombinant TACE catalytic domain, sequence (P78536 215-671): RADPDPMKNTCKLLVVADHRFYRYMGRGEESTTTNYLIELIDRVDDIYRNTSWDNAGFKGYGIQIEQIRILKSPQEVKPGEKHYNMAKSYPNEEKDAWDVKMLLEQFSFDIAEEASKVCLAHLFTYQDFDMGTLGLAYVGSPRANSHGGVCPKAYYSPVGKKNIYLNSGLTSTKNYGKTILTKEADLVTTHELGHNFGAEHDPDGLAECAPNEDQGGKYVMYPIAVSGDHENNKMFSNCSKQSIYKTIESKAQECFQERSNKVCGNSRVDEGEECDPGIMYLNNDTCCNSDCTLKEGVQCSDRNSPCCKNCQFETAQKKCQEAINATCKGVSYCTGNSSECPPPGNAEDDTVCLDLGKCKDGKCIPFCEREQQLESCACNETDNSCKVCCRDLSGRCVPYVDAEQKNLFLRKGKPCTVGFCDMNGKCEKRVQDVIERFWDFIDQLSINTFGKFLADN
MMP9 catalytic domain, sequence (P14780 20-707): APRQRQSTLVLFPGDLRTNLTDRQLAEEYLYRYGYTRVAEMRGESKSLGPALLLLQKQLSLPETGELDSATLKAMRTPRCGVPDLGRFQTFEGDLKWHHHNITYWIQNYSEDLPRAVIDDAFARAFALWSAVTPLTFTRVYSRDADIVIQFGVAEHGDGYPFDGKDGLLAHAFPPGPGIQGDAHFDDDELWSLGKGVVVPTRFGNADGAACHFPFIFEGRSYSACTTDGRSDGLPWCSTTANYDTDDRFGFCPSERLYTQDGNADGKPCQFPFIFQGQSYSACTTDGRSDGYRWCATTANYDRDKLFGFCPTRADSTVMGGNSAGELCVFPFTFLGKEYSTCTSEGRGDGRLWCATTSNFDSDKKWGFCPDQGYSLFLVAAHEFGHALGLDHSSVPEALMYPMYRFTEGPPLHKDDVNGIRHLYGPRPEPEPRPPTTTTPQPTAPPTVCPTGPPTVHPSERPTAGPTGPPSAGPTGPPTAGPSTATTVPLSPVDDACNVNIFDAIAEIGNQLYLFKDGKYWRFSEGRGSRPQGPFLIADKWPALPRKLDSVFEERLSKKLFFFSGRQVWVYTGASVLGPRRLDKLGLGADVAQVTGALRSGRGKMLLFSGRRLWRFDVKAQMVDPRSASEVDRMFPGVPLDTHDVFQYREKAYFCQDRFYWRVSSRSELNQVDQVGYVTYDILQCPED

“TACE prodomain (TPD) R58A (from UniProt P78536 23-214) (domain or fragment)” yielded an IC50 of inhibition of the enzyme's hydrolysis of a fluorogenic peptide (10 nM MMP9, Mca-PLGL-Dpa-AR 10 μM, 37 °C) with MMP9 catalytic domain of 4.34 µM. The IC50 of inhibition of the enzyme's hydrolysis of a fluorogenic peptide (10 nM MT1-MMP, Mca-PLGL-Dpa-AR 10 μM, 37 °C) with MT1-MMP catalytic domain turned out to be 4.65 µM. The IC50 of inhibition of the enzyme's hydrolysis of a fluorogenic peptide (10 nM TACE, 37 °C) in assay [1] was 0.307 µM.

Turning to “TACE prodomain double mutant R58A/C184A (TPD-DM) (from UniProt P78536 23-214) (domain or fragment)”, in the assay with MMP7 catalytic domain, the IC50 of inhibition of the enzyme's hydrolysis of a fluorogenic peptide (10 nM MMP7, Mca-PLGL-Dpa-AR 10 μM, 37 °C) stood at 5.44 µM. The IC50 of inhibition of the enzyme's hydrolysis of a fluorogenic peptide (10 nM TACE, 37 °C) in assay [1] stood at 0.018 µM.

The values are drawn from PMC5159831.
